The data set in a line: soluble on expression in E. coli; label from the status in PepcDB or PDB records.
In the case of “SDSFWEPGNYKRTTKRIEDGYKLCNDLQQLIQERADIEKGYAKSLRTWSKKWGELIEKGPEYGTTEAAWKGVLTESERISDVHMKIKDNLCNDVNSQIKTWQKENYHHTLMQIKERKDLEDLFKKAQKPWAKLLAKVEKAKADYHSACKTERSATNQERNANADSSLSPDQVKKMHDRVQKTKDQVQKCREKYEQAIAEITKYNSVYIEDMTSVFEKCQTFEKTRLQFFKEILFNVHSCLDLTKVQSLPQIYEEFSHTINNADQQKDLKWWSNNHGINMAMNWPSFVEYT”, the “soluble on expression in E. coli” value is “soluble”. Regarding “GMEMTKVTGKFDVKLTPENAYATGVGGVNLGRMALDKTFYGELEARSQGEMLSAMTAVKGSAGYVAIEQVVGKLCGRQGSFVLQHFGIMTDGQNRLHLEVVPHSGAGELTGLYGTMAISIENGQHFYEFSFCFEPASEVEG”, the “soluble on expression in E. coli” value is given as “soluble”. In the case of “AFINAHTHFEFSNNKASFDYGSFSGWLGSVLNNGGAILENCQGAIQNAISTQLKSGVGSVGAISNHLIEVNLLKESPLNAVVFLEFLGSSYSLEKLKAFEAKFKELKDLEDKKLKAALAVHAPYSVQKDMALSVIQLAKDSQSLLSTHFLESLEELEWVENSKGWFENFYQHFLKESHFKSLYKGANDYIDMFKDTHTLFVHNQFASLEALKRIKSQVKNAFLITCPFSNRLLSGQALDLERTKEAGLSVSVATDGLSSNISLSLLDELRAFLLTHNMPLLELAKIALLGATRHGAKALALNNG”, the “soluble on expression in E. coli” value is given as “not soluble”. Take “MGSDKIHHHHHHMVKYMKIVGITDLHGKLPPAVREFKDFADVLVVCGDITHFGKGIEVIEKLAELSDYMEVLCVPGNCDTKEVIDELNSFKLNIDRKVKKIENINFVGIGGSNKTPFNTPNEYTEEEIYNKLINVVKNLKNIFLVSHAPPYNTMADIVDLDKDIHVGSKSIRKIIEDFNENIRFCACGHIHESRCIDKIGNTIVVNPSPKSYFVYDTKKNMVVLDDFNGF”: the “soluble on expression in E. coli” value is on record as “not soluble”. In the case of “MKITHCKLKKEVQKEPLRSFVPEVTARSAADILGIHPDSAALFYRKIRTVANHRLALAADGVFEGPAGPGGSYFGGRRKGRRGRGAAGKAVVFGIPKRNGRAYTVAADNAEPETLPPAVKKKIMPDGIVYADSPGSRGKLDAGGFTRCRINRSKEFADRRNHINGIGDFWNQAKRALRKYNGIDRKPFPPFLRECEFRLNFGTPSRQLKILRDRCGILEHHHHHH”, the “soluble on expression in E. coli” value is listed as “not soluble”. Turning to “MSLILIKNVSYYIDNNLNVHENCDILIEKVENSEIKLTTGKNLLEKLNLNQNDLKIISGEKKCAIPGLYNAHTHVPMTLLRGIADDMILQDWLNQKIWPNEAKLNKNDVYYGSLLGCLEMLRFGVTSFNEMYFFSEEILKATKEIGLNAQVSYPIIDFGTPEEQSIDKLLTSAESFVKNNVGEKNIKVGIAPHAPYTCSEETYQKCSEISNDYNVNMHTHVSETRYEVVELENKIGMRPVEYLEKIGVLNEKLHAAHCVWITKDEAKKLAKNNAKVLHCPTSNMKLASGGVMPLFELLEYGADISVGTDGPASNNNLDILKEMKMTSLLHKAHRWDPTVAGIDTVLKMGINSESIEIKNNDIILIDLDSAHLRPFNNIKSNIVYSAFGNDVDTVIVGGNILLENKKYKFSETFISNIYKNIQKITEKFEEGHHHHHH”, the “soluble on expression in E. coli” value is “not soluble”. The entry for “MGSDKIHHHHHHMFKDEKTPDEYAEEARSDIAAGNYAEAIEKIDKAIDKEPRNPSLHLIRADALYRQGNYSSAIEELNFTEHMDKNNPELFSLKSICYGSMGDFKRSKEEADKAIKADQSYPFAYYNRAAALRGLGDVDGAEKDFRKYIEMQPSDPDPHYDLAEIYFEKKDYKKAMEEVKAVLRNDKSNEKAYDLKLQIHLATNDGEGYFKALLEAFKNTENFKYIGTLTDGLIGIGSYDTAEDILKQFIKVYEKEPYLYDLLARTYDQEGKAKEADETYNTLLRLNNSRESHIYWFDYLLDSGRYDDLLSEIEKSGFKDEEILEIEYIAQDASGKHEEALKTAGELVKMDQTPYSRSLYATQLRKLGKLEDALTYLGSGDQDSDEVQFEKFNILLEMGNHSLAMESLKNSITASDDDEERLGHLITGISSAISKADFNTVNNFLDGLKMPEEEENIAVYALKGIVSGIFESYSKGKDMLIGLDEDRDNVCDFASYLANLMQGKASEFLNKFIEENCKKPEE” is “not soluble”; for “MSASYQTIEHDVPQSYRDKILKWNGWGYSDSQFAINKDGHVTFTGDKYEISGKVMPHFRPWFENYLGIDLGFVSPAQKLSDVIIDAPVENEDIIEFLQENKISFSNEARIRLMRGHGHTVHDMINLREGKIPRLPDIVVWPKSEHEIVKIIEGAMSHNCAIIPIGGGTSVTNALDTPETEKRAVISMDMALLDKILWIDRENLTCRAQAGIVGQSLERQLNKKGFTCGHEPDSIEFSTLGGWVSTRASGMKKNKYGNIEDLVVHLNFVCPKGIIQKQCQVPRMSSGPDIHQIILGSEGTLGVVSEVTIKIFPIPEVKRFGSFVFPNFESGVNFFREVAIQRCQPASLRLMDNDQFVMGQALKVASDSWWADLKSSVSKMYITSWKGFKVDEICAATCVYEGNREEVDQHEERLNKLAEQFHGVVGGAENGQYGYRLTFAIAYLRDLGMNHGVLGESFETSVPWDKVLSLCRNVKELMKREAKAQGVTHPVLANCRVTQVYDAGACVYFYFGFNARGLKNGLEVYDRIETAARDEIIACGGSISHHHGVGKIRKQWMLTTNGAVGIALLKAIKSELDPANIFASANLIDIIGSPHCKL” it is “not soluble”. “MSLNYDWIKTRATFDEPKAAVIDPFKGTEWTYQDLNIRAENLANYLQEQGVQRGDVVGIFSPNDVALLDLLFASFKLGAVYLPINWRLKTQEIESVIADSDVKLIFYSAKHLSSLEGIADELIHMDIDSKTYDDIVDPTHHRPFTTVSVEGDDLASLMYTSGTTGLPKGVMFSYDSFVNNPINTALTYKVYASYTTIISTPMFHVLGFNDLTIPLLMAGGTLVLQRYFNGESLNDLMAQYQPNFLIQIPTMYYAMLVADNFDLKNFANIEFLIQGGAAPLPTVQKKFVSLGIPIITGYGLTEAPLVSVNTAANNERKPASIGQPVMFTDTRIFDDNFEEVQVGEIGELGVRGNNVTPGYWNKPEETAKAFSGEFFLTGDLAKIDEDGDVYIVDRRKEMIITGGENVLPSEVERVLSEHPLVAQGVVVGYDSPKYGESVSAAVVLTEDDPDFEQKLDAHMREHIAGYKIPRLYLKLTHIPLNSTSKPDKLEIQKYMNDKAQKQDQSKDEGHHHHHH”: the “soluble on expression in E. coli” value was “not soluble”.

In the case of “MGSDKIHHHHHHWARTVWPRLYWFVEGKLYRWLQSFIAYWGYTAGYDVYEYGDDVTTYYRDERVLMMCNHQSTADVPTLMTVLQNKGVASRKTLWLMDVMFRWTPFGIIGNNHGDYFIQQGKATRDKELIRLKKHLHDVFWDRDRRWVILFPEGGFYYKRVESSQSYGKKNGFPHLLYTTLPRMGAVQAILEEVGPRTEDSDEPRERSNSKLKLLQDTVGAIREKKYVKGE”, the “soluble on expression in E. coli” value is reported as “not soluble”. Turning to “MGSDKIHHHHHHMSVECFVTGGSGFVGQHLLAGLTAQGHKTWVLMRSPGNIERLKEQVGQLGGNPEYIHAVEGDISQEGLGLSEADKERVTSAAVFFHLAAQFSWGLTPERARTVNVQGALSVARLAASQRIRLLMVGGFMLQNLNHLASIGVDTQCPENTNWPAVYARVGGYEGSKLESHFAVIRYMQDADADYTIVHPATVCGHSENGHILDGQPLAELIRNLAQGRFKAIPGSASHWLPLVSVDYLVKMITCVAFDPSMANRQVLALYERTPNLQGMLGQIADTLKVKAPHRHIPIGLLRSILTIPGLATRLAISAESLNFIQTQRFDMGNSRQLERKYQFTHPDMTQALENTVRYVNGSLMKKSKSEGAGQRG”, the “soluble on expression in E. coli” value is “not soluble”. With “MGSDKIHHHHHHMKILPVISTKGGEGKSTQAANLAGFFADAGLKTLLIDGDYSQPTASSIYALEHEAPFGLFELLMQTTDLNQPESIISRTAIPNLDLIISNDPDDRLPTAMLHAPDGRMRLKNILQHQSFQSYDVIMIDSKGAAGVMVELVVLAATENVVGVIKPILPDVREFMRGTVRLMSRLLALQAYGIQIPDIKILANCVENTSLDRKTLEELGNIVSEKKYLQSESINISILETKIDQLEVYKRGHAFGQPVHRLEYVTDRKSAAAAVTMHSLACELFPHWKDKFDSVLRNQTGAGEVASV”, the “soluble on expression in E. coli” value is given as “not soluble”.

For the origin of these results see the DeepSol protein solubility set.
